Measured values published in publication PMC3082530 (2011).

Tests used:
subtilisin Carlsberg [1] = molecular target: T1, subtilisin Carlsberg (Bacillus licheniformis, UniProt P00780); assay: ITC; given as Ka
T1 chain: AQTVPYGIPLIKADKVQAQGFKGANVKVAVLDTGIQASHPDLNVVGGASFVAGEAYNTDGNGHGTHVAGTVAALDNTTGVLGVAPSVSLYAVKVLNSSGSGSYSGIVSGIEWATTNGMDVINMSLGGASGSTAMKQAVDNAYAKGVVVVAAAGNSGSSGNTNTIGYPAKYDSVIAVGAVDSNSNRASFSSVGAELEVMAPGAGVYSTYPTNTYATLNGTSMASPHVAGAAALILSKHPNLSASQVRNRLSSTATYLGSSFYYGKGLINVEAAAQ

subtilisin Carlsberg [2] = molecular target: T1, subtilisin Carlsberg; assay: ITC

Kd (subtilisin Carlsberg [1]): 526 µM | Kd (subtilisin Carlsberg [2]): 500 µM
Binder: VCTEEY [VCTEEY peptide (CrSPI-1 domain 2 RSL)]
